Measurements from IntAct's records for PubMed 25910212.

B1: Cyclin-dependent kinase 4 inhibitor C (Homo sapiens), P42773 (parent)
chain: MAEPWGNELASAAARGDLEQLTSLLQNNVNVNAQNGFGRTALQVMKLGNPEIARRLLLRGANPDLKDRTGFAVIHDAARAGFLDTLQTLLEFQADVNIEDNEGNLPLHLAAKEGHLRVVEFLVKHTASNVGHRNHKGDTACDLARLYGRNEVVSLMQANGAGGATNLQ
B2: Aspartoacylase (Homo sapiens), P45381 (parent)
chain: MTSCHIAEEHIQKVAIFGGTHGNELTGVFLVKHWLENGAEIQRTGLEVKPFITNPRAVKKCTRYIDCDLNRIFDLENLGKKMSEDLPYEVRRAQEINHLFGPKDSEDSYDIIFDLHNTTSNMGCTLILEDSRNNFLIQMFHYIKTSLAPLPCYVYLIEHPSLKYATTRSIAKYPVGIEVGPQPQGVLRADILDQMRKMIKHALDFIHHFNEGKEFPPCAIEVYKIIEKVDYPRDENGEIAAIIHPNLQDQDWKPLHPGDPMFLTLDGKTIPLGGDCTVYPVFVNEAAYYEKKEAFAKTTKLTLNAKSIRCCLH
B3: E3 ubiquitin-protein ligase TRIM32 (Homo sapiens), Q13049 (parent)
chain: MAAAAASHLNLDALREVLECPICMESFTEEQLRPKLLHCGHTICRQCLEKLLASSINGVRCPFCSKITRITSLTQLTDNLTVLKIIDTAGLSEAVGLLMCRSCGRRLPRQFCRSCGLVLCEPCREADHQPPGHCTLPVKEAAEERRRDFGEKLTRLRELMGELQRRKAALEGVSKDLQARYKAVLQEYGHEERRVQDELARSRKFFTGSLAEVEKSNSQVVEEQSYLLNIAEVQAVSRCDYFLAKIKQADVALLEETADEEEPELTASLPRELTLQDVELLKVGHVGPLQIGQAVKKPRTVNVEDSWAMEATASAASTSVTFREMDMSPEEVVASPRASPAKQRGPEAASNIQQCLFLKKMGAKGSTPGMFNLPVSLYVTSQGEVLVADRGNYRIQVFTRKGFLKEIRRSPSGIDSFVLSFLGADLPNLTPLSVAMNCQGLIGVTDSYDNSLKVYTLDGHCVACHRSQLSKPWGITALPSGQFVVTDVEGGKLWCFTVDRGSGVVKYSCLCSAVRPKFVTCDAEGTVYFTQGLGLNLENRQNEHHLEGGFSIGSVGPDGQLGRQISHFFSENEDFRCIAGMCVDARGDLIVADSSRKEILHFPKGGGYSVLIREGLTCPVGIALTPKGQLLVLDCWDHCIKIYSYHLRRYSTP
B4: Adenosylhomocysteinase (Homo sapiens), P23526 (parent)
chain: MSDKLPYKVADIGLAAWGRKALDIAENEMPGLMRMRERYSASKPLKGARIAGCLHMTVETAVLIETLVTLGAEVQWSSCNIFSTQDHAAAAIAKAGIPVYAWKGETDEEYLWCIEQTLYFKDGPLNMILDDGGDLTNLIHTKYPQLLPGIRGISEETTTGVHNLYKMMANGILKVPAINVNDSVTKSKFDNLYGCRESLIDGIKRATDVMIAGKVAVVAGYGDVGKGCAQALRGFGARVIITEIDPINALQAAMEGYEVTTMDEACQEGNIFVTTTGCIDIILGRHFEQMKDDAIVCNIGHFDVEIDVKWLNENAVEKVNIKPQVDRYRLKNGRRIILLAEGRLVNLGCAMGHPSFVMSNSFTNQVMAQIELWTHPDKYPVGVHFLPKKLDEAVAEAHLGKLNVKLTKLTEKQAQYLGMSCDGPFKPDHYRY

Variants of: B1
Details: with cdk6_human CDK6, Q00534
cdk6_human CDK6, Q00534, sequence (Q00534 whole entry): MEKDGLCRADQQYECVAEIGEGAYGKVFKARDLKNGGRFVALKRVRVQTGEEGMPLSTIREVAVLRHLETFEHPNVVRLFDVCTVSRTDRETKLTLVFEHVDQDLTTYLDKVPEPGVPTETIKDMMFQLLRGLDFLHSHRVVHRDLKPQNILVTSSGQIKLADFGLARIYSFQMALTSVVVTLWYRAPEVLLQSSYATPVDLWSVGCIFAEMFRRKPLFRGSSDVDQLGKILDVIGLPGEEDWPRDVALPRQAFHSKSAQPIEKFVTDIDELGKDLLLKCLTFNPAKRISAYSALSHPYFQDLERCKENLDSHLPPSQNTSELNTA

| Variant | effect of a mutation on the interaction |
| --- | --- |
| MAEPWGNELASAAARGDLEQLTSLLQNNVNLNAQNGFGRTALQVMKLGNPEIARRLLLRGANPDLKDRTGFAVIHDAARAGFLDTLQTLLEFQADVNIEDNEGNLPLHLAAKEGHLRVVEFLVKHTASNVGHRNHKGDTACDLARLYGRNEVVSLMQANGAGGATNLQ [V31L] | with no effect |

Variants of: B1
Details: with TCF12, Q99081-3
TCF12, Q99081-3, sequence (Q99081 other isoform, or with tags, fused parts or gaps): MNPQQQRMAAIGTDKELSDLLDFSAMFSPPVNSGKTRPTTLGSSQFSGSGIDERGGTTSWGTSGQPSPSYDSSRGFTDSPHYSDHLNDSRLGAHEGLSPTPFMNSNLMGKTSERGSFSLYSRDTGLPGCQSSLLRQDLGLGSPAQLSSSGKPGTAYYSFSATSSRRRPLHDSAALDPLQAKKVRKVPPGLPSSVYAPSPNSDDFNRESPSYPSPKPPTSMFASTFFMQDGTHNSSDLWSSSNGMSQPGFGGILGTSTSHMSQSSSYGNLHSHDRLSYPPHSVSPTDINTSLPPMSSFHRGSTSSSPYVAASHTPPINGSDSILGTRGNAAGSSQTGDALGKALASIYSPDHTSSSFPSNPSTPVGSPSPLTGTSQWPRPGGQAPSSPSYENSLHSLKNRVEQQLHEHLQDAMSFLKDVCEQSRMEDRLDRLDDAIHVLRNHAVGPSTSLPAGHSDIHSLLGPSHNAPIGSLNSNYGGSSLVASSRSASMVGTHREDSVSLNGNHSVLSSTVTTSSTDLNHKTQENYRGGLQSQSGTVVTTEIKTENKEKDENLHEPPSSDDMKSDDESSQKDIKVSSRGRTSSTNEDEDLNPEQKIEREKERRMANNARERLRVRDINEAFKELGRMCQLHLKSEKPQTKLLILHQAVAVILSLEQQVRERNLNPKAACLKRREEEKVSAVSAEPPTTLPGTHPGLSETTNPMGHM

| Variant | effect of a mutation on the interaction |
| --- | --- |
| MAEPWGNELASAAARGDLEQLTSLLQNNVNLNAQNGFGRTALQVMKLGNPEIARRLLLRGANPDLKDRTGFAVIHDAARAGFLDTLQTLLEFQADVNIEDNEGNLPLHLAAKEGHLRVVEFLVKHTASNVGHRNHKGDTACDLARLYGRNEVVSLMQANGAGGATNLQ [V31L] | disrupting interaction strength |

Variants of: B1
Details: with NAGK

| Variant | effect of a mutation on the interaction |
| --- | --- |
| MAEPWGNELASAAARGDLEQLTSLLQNNVNLNAQNGFGRTALQVMKLGNPEIARRLLLRGANPDLKDRTGFAVIHDAARAGFLDTLQTLLEFQADVNIEDNEGNLPLHLAAKEGHLRVVEFLVKHTASNVGHRNHKGDTACDLARLYGRNEVVSLMQANGAGGATNLQ [V31L] | disrupting interaction strength |

Variants of: B1
Details: with sahh2_human AHCYL1, O43865
sahh2_human AHCYL1, O43865, sequence (O43865 whole entry): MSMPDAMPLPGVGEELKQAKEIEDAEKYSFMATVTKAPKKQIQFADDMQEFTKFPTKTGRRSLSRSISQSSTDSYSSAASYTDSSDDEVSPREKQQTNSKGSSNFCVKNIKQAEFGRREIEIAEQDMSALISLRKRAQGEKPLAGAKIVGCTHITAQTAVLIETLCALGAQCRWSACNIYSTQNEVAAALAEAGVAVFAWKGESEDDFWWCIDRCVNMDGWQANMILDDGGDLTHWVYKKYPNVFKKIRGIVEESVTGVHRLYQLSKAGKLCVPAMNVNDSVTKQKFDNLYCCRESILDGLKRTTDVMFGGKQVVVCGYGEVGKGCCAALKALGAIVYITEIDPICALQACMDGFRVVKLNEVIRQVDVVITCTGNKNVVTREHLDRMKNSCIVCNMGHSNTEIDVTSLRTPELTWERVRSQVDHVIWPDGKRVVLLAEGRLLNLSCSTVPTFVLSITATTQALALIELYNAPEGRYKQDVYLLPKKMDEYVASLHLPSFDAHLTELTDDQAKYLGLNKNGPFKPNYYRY

| Variant | effect of a mutation on the interaction |
| --- | --- |
| MAEPWGNELASAAARGDLEQLTSLLQNNVNLNAQNGFGRTALQVMKLGNPEIARRLLLRGANPDLKDRTGFAVIHDAARAGFLDTLQTLLEFQADVNIEDNEGNLPLHLAAKEGHLRVVEFLVKHTASNVGHRNHKGDTACDLARLYGRNEVVSLMQANGAGGATNLQ [V31L] | disrupting interaction strength |

Variants of: B1
Details: with TCF4, P15884-3
TCF4, P15884-3, sequence (P15884 other isoform, or with tags, fused parts or gaps): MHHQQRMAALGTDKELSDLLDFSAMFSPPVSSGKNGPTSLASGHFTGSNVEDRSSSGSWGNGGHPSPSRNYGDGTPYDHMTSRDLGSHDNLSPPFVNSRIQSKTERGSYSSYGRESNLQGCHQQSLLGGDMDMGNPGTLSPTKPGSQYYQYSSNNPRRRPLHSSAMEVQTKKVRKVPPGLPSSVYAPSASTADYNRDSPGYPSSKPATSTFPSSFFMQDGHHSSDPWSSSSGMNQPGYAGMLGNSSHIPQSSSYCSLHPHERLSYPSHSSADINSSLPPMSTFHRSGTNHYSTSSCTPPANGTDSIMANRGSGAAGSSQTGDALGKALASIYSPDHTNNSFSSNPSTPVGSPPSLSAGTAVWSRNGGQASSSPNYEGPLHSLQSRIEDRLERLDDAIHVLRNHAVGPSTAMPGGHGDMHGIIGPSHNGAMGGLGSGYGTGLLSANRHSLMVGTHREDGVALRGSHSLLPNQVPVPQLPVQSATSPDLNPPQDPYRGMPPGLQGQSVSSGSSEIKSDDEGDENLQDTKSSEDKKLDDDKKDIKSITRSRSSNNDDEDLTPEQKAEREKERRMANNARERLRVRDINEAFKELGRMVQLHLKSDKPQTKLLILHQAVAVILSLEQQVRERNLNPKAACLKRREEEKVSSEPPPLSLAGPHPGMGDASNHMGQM

| Variant | effect of a mutation on the interaction |
| --- | --- |
| MAEPWGNELASAAARGDLEQLTSLLQNNVNLNAQNGFGRTALQVMKLGNPEIARRLLLRGANPDLKDRTGFAVIHDAARAGFLDTLQTLLEFQADVNIEDNEGNLPLHLAAKEGHLRVVEFLVKHTASNVGHRNHKGDTACDLARLYGRNEVVSLMQANGAGGATNLQ [V31L] | disrupting interaction strength |

Variants of: B2
Details: with keap1_human KEAP1, Q14145
keap1_human KEAP1, Q14145, sequence (Q14145 whole entry): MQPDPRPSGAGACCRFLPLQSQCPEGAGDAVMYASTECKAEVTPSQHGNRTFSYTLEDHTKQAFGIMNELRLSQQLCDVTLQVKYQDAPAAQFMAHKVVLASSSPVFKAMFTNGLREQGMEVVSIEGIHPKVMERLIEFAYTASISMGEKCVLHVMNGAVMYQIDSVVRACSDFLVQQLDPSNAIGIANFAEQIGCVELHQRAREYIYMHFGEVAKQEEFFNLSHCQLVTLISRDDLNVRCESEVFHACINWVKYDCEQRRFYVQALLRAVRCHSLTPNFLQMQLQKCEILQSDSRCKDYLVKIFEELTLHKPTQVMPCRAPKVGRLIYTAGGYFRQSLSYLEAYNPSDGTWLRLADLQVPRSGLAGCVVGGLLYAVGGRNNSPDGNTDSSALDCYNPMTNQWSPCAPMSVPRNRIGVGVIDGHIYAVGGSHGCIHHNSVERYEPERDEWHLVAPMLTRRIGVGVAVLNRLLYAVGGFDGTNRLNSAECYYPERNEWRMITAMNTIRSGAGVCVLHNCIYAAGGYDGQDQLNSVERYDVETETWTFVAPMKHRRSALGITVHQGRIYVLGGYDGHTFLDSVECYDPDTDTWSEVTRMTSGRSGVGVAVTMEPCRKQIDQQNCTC

| Variant | effect of a mutation on the interaction |
| --- | --- |
| MTSCHIAEEHIQKVAIFGGTHGNGLTGVFLVKHWLENGAEIQRTGLEVKPFITNPRAVKKCTRYIDCDLNRIFDLENLGKKMSEDLPYEVRRAQEINHLFGPKDSEDSYDIIFDLHNTTSNMGCTLILEDSRNNFLIQMFHYIKTSLAPLPCYVYLIEHPSLKYATTRSIAKYPVGIEVGPQPQGVLRADILDQMRKMIKHALDFIHHFNEGKEFPPCAIEVYKIIEKVDYPRDENGEIAAIIHPNLQDQDWKPLHPGDPMFLTLDGKTIPLGGDCTVYPVFVNEAAYYEKKEAFAKTTKLTLNAKSIRCCLH [E24G] | with no effect |
| MTSCHIAEEHIQKVAIFGGTHGNELTGVFLVKHWLENGAEIQRTGLEVKPFITNPRAVKKCTRYIDCDLNRIFDLENLGKKMSEDLPYEVRRAQEINHLFGPKDSEDSYDIIFDLHNTTSNMGCTLILEDSRNNFLIQMFHYIKTSLAPLPCYVYLIEHPSLKYATTRSIAKYPVGIEVGPQPQGVLRADILDQRRKMIKHALDFIHHFNEGKEFPPCAIEVYKIIEKVDYPRDENGEIAAIIHPNLQDQDWKPLHPGDPMFLTLDGKTIPLGGDCTVYPVFVNEAAYYEKKEAFAKTTKLTLNAKSIRCCLH [M195R] | with no effect |
| MTSCHIAEEHIQKVAIFGGTHGNELTGVFLVKHWLENGAEIQRTGLEVKPFITNPRAVKKCTRYIDCDLNRIFDLENLGKKMSEDLPYEVRRAQEINHLFGPKDSEDSYDIIFDLHNTTSNMGCTLILEDSRNNFLIQMFHYIKTSLAPLPCYVYLIEHPSLKYATTRSIAKYPVGIEVGPQPQGVLRADILDQMRKMIKHALDFIHHFNEGKEFPPCAIEVYKIIEKVDYPRDENGEIAAIIHPNLQDQDWKPLHPGDPMFLTLDGKTIPLGGDCTVYPVFVNAAAYYEKKEAFAKTTKLTLNAKSIRCCLH [E285A] | disrupting interaction strength |

Variants of: B2
Details: with keap1_human KEAP1, Q14145
Remark: another data set of the same source

| Variant | effect of a mutation on the interaction |
| --- | --- |
| MTSCHIAEEHIQKVAIFGGTHGNGLTGVFLVKHWLENGAEIQRTGLEVKPFITNPRAVKKCTRYIDCDLNRIFDLENLGKKMSEDLPYEVRRAQEINHLFGPKDSEDSYDIIFDLHNTTSNMGCTLILEDSRNNFLIQMFHYIKTSLAPLPCYVYLIEHPSLKYATTRSIAKYPVGIEVGPQPQGVLRADILDQMRKMIKHALDFIHHFNEGKEFPPCAIEVYKIIEKVDYPRDENGEIAAIIHPNLQDQDWKPLHPGDPMFLTLDGKTIPLGGDCTVYPVFVNEAAYYEKKEAFAKTTKLTLNAKSIRCCLH [E24G] | causing an interaction |
| MTSCHIAEEHIQKVAIFGGTHGNELTGVFLVKHWLENGAEIQRTGLEVKPFITNPRAVKKCTRYIDCDLNRIFDLENLGKKMSEDLPYEVRRAQEINHLFGPKDSEDSYDIIFDLHNTTSNMGCTLILEDSRNNFLIQMFHYIKTSLAPLPCYVYLIEHPSLKYATTRSIAKYPVGIEVGPQPQGVLRADILDQRRKMIKHALDFIHHFNEGKEFPPCAIEVYKIIEKVDYPRDENGEIAAIIHPNLQDQDWKPLHPGDPMFLTLDGKTIPLGGDCTVYPVFVNEAAYYEKKEAFAKTTKLTLNAKSIRCCLH [M195R] | causing an interaction |
| MTSCHIAEEHIQKVAIFGGTHGNELTGVFLVKHWLENGAEIQRTGLEVKPFITNPRAVKKCTRYIDCDLNRIFDLENLGKKMSEDLPYEVRRAQEINHLFGPKDSEDSYDIIFDLHNTTSNMGCTLILEDSRNNFLIQMFHYIKTSLAPLPCYVYLIEHPSLKYATTRSIAKYPVGIEVGPQPQGVLRADILDQMRKMIKHALDFIHHFNEGKEFPPCAIEVYKIIEKVDYPRDENGEIAAIIHPNLQDQDWKPLHPGDPMFLTLDGKTIPLGGDCTVYPVFVNAAAYYEKKEAFAKTTKLTLNAKSIRCCLH [E285A] | causing an interaction |

Variants of: B3
Details: with PDE9A

| Variant | effect of a mutation on the interaction |
| --- | --- |
| P130S | with no effect |
| R394H | disrupting interaction strength |
| D487N | disrupting interaction strength |

Variants of: B3
Details: with praf1_human RABAC1, Q9UI14
praf1_human RABAC1, Q9UI14, sequence (Q9UI14 whole entry): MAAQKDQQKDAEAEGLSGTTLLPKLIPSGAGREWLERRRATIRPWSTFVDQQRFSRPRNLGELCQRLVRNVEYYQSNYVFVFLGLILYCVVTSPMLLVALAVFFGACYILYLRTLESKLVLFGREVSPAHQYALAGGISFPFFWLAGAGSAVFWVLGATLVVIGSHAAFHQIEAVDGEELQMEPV

| Variant | effect of a mutation on the interaction |
| --- | --- |
| P130S | with no effect |
| R394H | disrupting interaction strength |
| D487N | disrupting interaction strength |

Variants of: B3
Details: with ABI2, Q9NYB9-2
ABI2, Q9NYB9-2, sequence (Q9NYB9 other isoform, or with tags, fused parts or gaps): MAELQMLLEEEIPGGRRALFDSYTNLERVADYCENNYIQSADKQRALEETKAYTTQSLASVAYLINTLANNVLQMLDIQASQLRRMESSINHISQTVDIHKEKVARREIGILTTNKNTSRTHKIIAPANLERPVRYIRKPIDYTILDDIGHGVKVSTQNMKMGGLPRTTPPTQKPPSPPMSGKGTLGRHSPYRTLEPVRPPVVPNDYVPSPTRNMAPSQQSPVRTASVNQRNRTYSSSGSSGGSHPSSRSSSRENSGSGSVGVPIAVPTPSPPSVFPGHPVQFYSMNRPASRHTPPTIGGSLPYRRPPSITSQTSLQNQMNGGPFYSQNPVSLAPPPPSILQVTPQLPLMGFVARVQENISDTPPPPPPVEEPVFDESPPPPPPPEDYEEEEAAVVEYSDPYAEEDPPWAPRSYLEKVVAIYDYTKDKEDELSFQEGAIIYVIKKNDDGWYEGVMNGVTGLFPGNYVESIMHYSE

| Variant | effect of a mutation on the interaction |
| --- | --- |
| P130S | with no effect |
| R394H | disrupting interaction strength |
| D487N | disrupting interaction strength |

Variants of: B3
Details: with PDE9A
Remark: another data set of the same source

| Variant | effect of a mutation on the interaction |
| --- | --- |
| R394H | with no effect |

Variants of: B4
Details: with ca050_human C1orf50, Q9BV19
ca050_human C1orf50, Q9BV19, sequence (Q9BV19 whole entry): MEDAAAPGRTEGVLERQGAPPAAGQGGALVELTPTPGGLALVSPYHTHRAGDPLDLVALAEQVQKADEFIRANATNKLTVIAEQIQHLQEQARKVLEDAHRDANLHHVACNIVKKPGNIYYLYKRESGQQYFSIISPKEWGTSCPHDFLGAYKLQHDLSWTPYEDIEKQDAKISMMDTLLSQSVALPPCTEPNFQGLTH

| Variant | effect of a mutation on the interaction |
| --- | --- |
| D86G | with no effect |
| A89V | with no effect |

Variants of: B4
Details: with ca050_human C1orf50, Q9BV19
Remark: another data set of the same source

| Variant | effect of a mutation on the interaction |
| --- | --- |
| D86G | disrupting interaction strength |
